Results on 4 molecules are retold here after patent publication US20240400715A1 (VIBRANT PHARMA, published 2024).

The target in assay [1] is T1, human CD3ε/δ (ACRO systems, CDD-H52W1) (human, UniProt P07766 23-126; P04234 22-105).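 Note: bispecific antibodies captured on AHIC biosensors to a 1.5 nm loading signal, in PBST with 0.02% detergent.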
T1 construct: Bought protein; also called human CD3ϵ/CD3δ; human CD3 epsilon/delta antigen
In words: BLI, antibody captured, antigen in solution. (BLI is a label-free optical method that tracks binding on a fibre tip over time.)
Experimental: The bispecific antibodies were diluted to 5 ag/ml, and 1.5 nm protein was coupled to the surface of the AHIC sensor chip through 0.02% PBST.

Assay [2] concerns the target T2, human CD3 on Jurkat cells (human, UniProt P07766 23-207; P04234 22-171; P09693 23-182).
T2 construct: whole, on cells; CD3 complex as on Jurkat (Clone E6-1) cells; also called CD3 expressing cells (Jurkat)
In words: FACS, Jurkat cells.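 Note: flow cytometric binding of bispecific antibodies to Jurkat T cells, threefold serial dilutions incubated half an hour in the cold, EC50 taken from the fitted binding curve.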 For orientation: In flow cytometry, cells or beads pass a laser one at a time.

The term Kd denotes the free concentration of one partner at which half of the binding sites on the other are occupied at equilibrium, for simple one-to-one binding. High values mean lower affinity, low ones higher affinity. A word on the koff: it is a measure of how fast the partners let go of each other. In general, kon refers to a measure of how fast the partners come together. Lower therefore signals slower complex formation. What is called EC50 is the concentration needed to bring the measured effect to its halfway point.

“And” between values parts separate entries of the source, which are not always exact repeats. Identical values can stand only once.

B1: 305 (TA6), configuration of FIG. 1W (bispecific antibody, IgG4)
heavy: EVQLVQSGAEVKKPGASVKVSCKASGYTFTNYYIHWVRQAPGQGLEWIGWIYPGDGNTKYNEKFKGRATLTADTSTSTAYLELSSLRSEDTAVYYCARDSYSNYYFDYWGQGTLVTVSSASTKGPSVFPLAPCSRSTSESTAALGCLVKDYFPEPVTVSWNSGALTSGVHTFPAVLQSSGLYSLSSVVTVPSSSLGTKTYTCNVDHKPSNTKVDKRVESKYGPPCPPCPAPEAAGGPSVFLFPPKPKDTLMISRTPEVTCVVVDVSQEDPEVQFNWYVDGVEVHNAKTKPREEQFNSTYRVVSVLTVLHQDWLNGKEYKCKVSNKGLPSSIEKTISKAKGQPREPQVYTLPPCQEEMTKNQVSLWCLVKGFYPSDIAVEWESNGQPENNYKTTPPVLDSDGSFFLYSRLTVDKSRWQEGNVFSCSVMHEALHNHYTQKSLSLSL
chain: EVQLVESGGGFVQAGESLTLSCTSSTLTFTPYRMAWYRQAPGKQRDLVADISSGDGRTTNYADFAKGRFTISRDNIKNTVFLRMTNLKPEDTAVYYCNTFVSFVGIARSWGQGTQVTVSSESKYGPPCPPCPAPEAAGGPSVFLFPPKPKDTLMISRTPEVTCVVVDVSQEDPEVQFNWYVDGVEVHNAKTKPREEQFNSTYRVVSVLTVLHQDWLNGKEYKCKVSNKGLPSSIEKTISKAKGQPREPQVCTLPPSQEEMTKNQVSLSCAVKGFYPSDIAVEWESNGQPENNYKTTPPVLDSDGSFFLVSRLTVDKSRWQEGNVFSCSVMHEALHNRFTQKSLSLSL
light: DIVMTQSPDSLAVSLGERATINCKSSQSLLNSRTRKNYLAWYQQKPGQPPKLLIYWASTRESGVPDRFSGSGSGTDFTLTISSLQAEDVAVYYCTQSFILRTFGQGTKVEIK
notes: chains put together from VH/VL, CH1, knob-Fc; IgG4, kappa; also called CEA-CD3 bispecific antibody 305; not shown: kappa light chain constant domain (CL)
Consider B1, for which, in assay [1], the Kd was determined as 2.85 nM, the koff turned out to be 0.00087 s⁻¹ and the association rate constant (kon) is 324000 M⁻¹ s⁻¹. Further, the EC50 in assay [2] is 0.267 µg/mL and 2.05 nM.

B2: Knob+CEA-Fab-Hole (204) (bispecific antibody, human IgG4 S228P, kappa, F234A L235A)
chain: ESKYGPPCPPCPAPEAAGGPSVFLFPPKPKDTLMISRTPEVTCVVVDVSQEDPEVQFNWYVDGVEVHNAKTKPREEQFNSTYRVVSVLTVLHQDWLNGKEYKCKVSNKGLPSSIEKTISKAKGQPREPQVYTLPPCQEEMTKNQVSLWCLVKGFYPSDIAVEWESNGQPENNYKTTPPVLDSDGSFFLYSRLTVDKSRWQEGNVFSCSVMHEALHNHYTQKSLSLSL
heavy: EVKLLESGGGLVQPKGSLKLSCAASGFTFNTYAMNWVRQAPGKGLEWVARIRSKYNNYATYYADSVKDRFTISRDDSQSILYLQMNNLKTEDTAMYYCVRHGNFGNSYVSWFAYWGQGTLVTVSSASTKGPSVFPLAPCSRSTSESTAALGCLVKDYFPEPVTVSWNSGALTSGVHTFPAVLQSSGLYSLSSVVTVPSSSLGTKTYTCNVDHKPSNTKVDKRVESKYGPPCPPCPAPEAAGGPSVFLFPPKPKDTLMISRTPEVTCVVVDVSQEDPEVQFNWYVDGVEVHNAKTKPREEQFNSTYRVVSVLTVLHQDWLNGKEYKCKVSNKGLPSSIEKTISKAKGQPREPQVCTLPPSQEEMTKNQVSLSCAVKGFYPSDIAVEWESNGQPENNYKTTPPVLDSDGSFFLVSRLTVDKSRWQEGNVFSCSVMHEALHNRFTQKSLSLSL
light: EVQLVESGGGFVQAGESLTLSCTSSTLTFTPYRMAWYRQAPGKQRDLVADISSGDGRTTNYADFAKGRFTISRDNIKNTVFLRMTNLKPEDTAVYYCNTFVSFVGIARSWGQGTQVTVSSGGGGSGGGGSQAVVTQESALTTSPGETVTLTCRSSTGAVTTSNYANWVQEKPDHLFTGLIGGTNKRAPGVPARFSGSLIGDKAALTITGAQTEDEAIYFCALWYSNLWVFGGGTKVEIKRTVAAPSVFIFPPSDEQLKSGTASVVCLLNNFYPREAKVQWKVDNALQSGNSQESVTEQDSKDSTYSLSSTLTLSKADYEKHKVYACEVTHQGLSSPVTKSFNRGEC
notes: VHH linked to the VL of the Fab; human IgG4 knob-into-hole Fc
In assay [1], B2 showed a Kd of 2.91 nM, a koff of 0.000571 s⁻¹ and an association rate constant (kon) of 197000 M⁻¹ s⁻¹. The EC50 in assay [2] was 1.36 µg/mL and 10.4 nM.

B3: Knob-CEA+Fab-Hole (105) (bispecific antibody, human IgG4 S228P, kappa, F234A L235A)
chain: ESKYGPPCPPCPAPEAAGGPSVFLFPPKPKDTLMISRTPEVTCVVVDVSQEDPEVQFNWYVDGVEVHNAKTKPREEQFNSTYRVVSVLTVLHQDWLNGKEYKCKVSNKGLPSSIEKTISKAKGQPREPQVYTLPPCQEEMTKNQVSLWCLVKGFYPSDIAVEWESNGQPENNYKTTPPVLDSDGSFFLYSRLTVDKSRWQEGNVFSCSVMHEALHNHYTQKSLSLSLGGGGSGGGGSEVQLVESGGGFVQAGESLTLSCTSSTLTFTPYRMAWYRQAPGKQRDLVADISSGDGRTTNYADFAKGRFTISRDNIKNTVFLRMTNLKPEDTAVYYCNTFVSFVGIARSWGQGTQVTVSS
heavy: EVKLLESGGGLVQPKGSLKLSCAASGFTFNTYAMNWVRQAPGKGLEWVARIRSKYNNYATYYADSVKDRFTISRDDSQSILYLQMNNLKTEDTAMYYCVRHGNFGNSYVSWFAYWGQGTLVTVSSASTKGPSVFPLAPCSRSTSESTAALGCLVKDYFPEPVTVSWNSGALTSGVHTFPAVLQSSGLYSLSSVVTVPSSSLGTKTYTCNVDHKPSNTKVDKRVESKYGPPCPPCPAPEAAGGPSVFLFPPKPKDTLMISRTPEVTCVVVDVSQEDPEVQFNWYVDGVEVHNAKTKPREEQFNSTYRVVSVLTVLHQDWLNGKEYKCKVSNKGLPSSIEKTISKAKGQPREPQVCTLPPSQEEMTKNQVSLSCAVKGFYPSDIAVEWESNGQPENNYKTTPPVLDSDGSFFLVSRLTVDKSRWQEGNVFSCSVMHEALHNRFTQKSLSLSL
light: QAVVTQESALTTSPGETVTLTCRSSTGAVTTSNYANWVQEKPDHLFTGLIGGTNKRAPGVPARFSGSLIGDKAALTITGAQTEDEAIYFCALWYSNLWVFGGGTKVEIKRTVAAPSVFIFPPSDEQLKSGTASVVCLLNNFYPREAKVQWKVDNALQSGNSQESVTEQDSKDSTYSLSSTLTLSKADYEKHKVYACEVTHQGLSSPVTKSFNRGEC
notes: Anti-CD3 TA1 Fab + anti-CEA VHH C17 on human IgG4 knob-into-hole Fc
For the molecule B3, in assay [1], the Kd worked out at 0.696 nM, the dissociation rate constant (koff) stood at 0.000256 s⁻¹ and the kon worked out at 367000 M⁻¹ s⁻¹. Besides, in assay [2], the EC50 was 0.85 µg/mL and 6.54 nM.

B4: CEA-Fab-Knob-+Hole (205) (bispecific antibody, human IgG4 S228P, kappa, F234A L235A)
heavy: EVQLVESGGGFVQAGESLTLSCTSSTLTFTPYRMAWYRQAPGKQRDLVADISSGDGRTTNYADFAKGRFTISRDNIKNTVFLRMTNLKPEDTAVYYCNTFVSFVGIARSWGQGTQVTVSSGGGGSGGGGSEVKLLESGGGLVQPKGSLKLSCAASGFTFNTYAMNWVRQAPGKGLEWVARIRSKYNNYATYYADSVKDRFTISRDDSQSILYLQMNNLKTEDTAMYYCVRHGNFGNSYVSWFAYWGQGTLVTVSSASTKGPSVFPLAPCSRSTSESTAALGCLVKDYFPEPVTVSWNSGALTSGVHTFPAVLQSSGLYSLSSVVTVPSSSLGTKTYTCNVDHKPSNTKVDKRVESKYGPPCPPCPAPEAAGGPSVFLFPPKPKDTLMISRTPEVTCVVVDVSQEDPEVQFNWYVDGVEVHNAKTKPREEQFNSTYRVVSVLTVLHQDWLNGKEYKCKVSNKGLPSSIEKTISKAKGQPREPQVYTLPPCQEEMTKNQVSLWCLVKGFYPSDIAVEWESNGQPENNYKTTPPVLDSDGSFFLYSRLTVDKSRWQEGNVFSCSVMHEALHNHYTQKSLSLSL
chain: ESKYGPPCPPCPAPEAAGGPSVFLFPPKPKDTLMISRTPEVTCVVVDVSQEDPEVQFNWYVDGVEVHNAKTKPREEQFNSTYRVVSVLTVLHQDWLNGKEYKCKVSNKGLPSSIEKTISKAKGQPREPQVCTLPPSQEEMTKNQVSLSCAVKGFYPSDIAVEWESNGQPENNYKTTPPVLDSDGSFFLVSRLTVDKSRWQEGNVFSCSVMHEALHNRFTQKSLSLSL
light: QAVVTQESALTTSPGETVTLTCRSSTGAVTTSNYANWVQEKPDHLFTGLIGGTNKRAPGVPARFSGSLIGDKAALTITGAQTEDEAIYFCALWYSNLWVFGGGTKVEIKRTVAAPSVFIFPPSDEQLKSGTASVVCLLNNFYPREAKVQWKVDNALQSGNSQESVTEQDSKDSTYSLSSTLTLSKADYEKHKVYACEVTHQGLSSPVTKSFNRGEC
notes: VHH linked to the VH of the Fab; human IgG4 knob-into-hole Fc
B4: in assay [1], the Kd is 2.38 nM, the koff worked out at 0.000666 s⁻¹ and the kon was determined as 279000 M⁻¹ s⁻¹. In addition, the concentration giving a half-maximal response (EC50) in assay [2] was 0.195 µg/mL and 1.5 nM.
